Laboratory results published in patent US20060211624A1, “Methods and compositions for the treatment of parkinson's disease and other alpha-synucleinopathies” (Goverment of the US, as Represented by, priority 2003, published 2006).

Molecular target: purified recombinant human α-synuclein protein, P37840

B1: purified guinea pig liver tTGase (protein)
chain: AEDLILERCDLQLEVNGRDHRTADLCRERLVLRRGQPFWLTLHFEGRGYEAGVDTLTFNAVTGPDPSEEAGTMARFSLSSAVEGGTWSASAVDQQDSTVSLLLSTPADAPIGLYRLSLEASTGYQGSSFVLGHFILLYNPRCPADAVYMDSDQERQEYVLTQQGFIYQGSAKFINGIPWNFGQFEDGILDICLMLLDTNPKFLKNAGQDCSRRSRPVYVGRVVSAMVNCNDDQGVLQGRWDNNYSDGVSPMSWIGSVDILRRWKDYGCQRVKYGQCWVFAAVACTVLRCLGIPTRVVTNFNSAHDQNSNLLIEYFRNESGEIEGNKSEMIWNFHCWVESWMTRPDLEPGYEGWQALDPTPQEKSEGTYCCGPVPVRAIKEGHLNVKYDAPFVFAEVNADVVNWIRQKDGSLRKSINHLVVGLKISTKSVGRDEREDITHTYKYPEGSEEEREAFVRANHLNKLATKEEAQEETGVAMRIRVGQNMTMGSDFDIFAYITNGTAESHECQLLLCARIVSYNGVLGPVCSTNDLLNLTLDPFSENSIPLHILYEKYGDYLTESNLIKVRGLLIEPAANSYVLAERDIYLENPEIKIRVLGEPKQNRKLIAEVSLKNPLPVPLLGCIFTVEGAGLTKDQKSVEVPDPVEAGEQAKVRVDLLPTEVGLHKLVVNFECDKLKAVKGYRNVIIGPA
With B1 the “formation of high molecular weight aggregates of α-synuclein (in vitro cross-linking reaction, SDS/PAGE and Western blot)” value was “In the presence of DTT, the reduced form of tTGase induced the formation of high molecular weight aggregates of α-synuclein”.
